Data published in publication PMC11090908, “Aurora-A condensation mediated by BuGZ aids its mitotic centrosome functions” (iScience, 2024).

B1: Aurora-A IDR (intrinsic disordered region, 1-127aa) (domain or fragment, human, UniProt O14965 1-127, looked up)
chain: MDRSKENCISGPVKATAPVGGPKRVLVTQQFPCQNPLPVNSGQAQRVLCPSNSSQRIPLQAQKLVSSHKPVQNQKQKQLQATSVPHPVSRPLNNTQKSKQPLPSAPENNPEEELASKQKNEESKKRQ
notes: Aurora-A (Aurora kinase A), human, N-terminal intrinsic disordered region; 1-127aa in the NMR text and legend, 1-126aa in the constructs section; The methods list the construct pET-28a-hAurora-IDR as 1-126aa; the NMR results and legend say 1-127aa; Uniformly isotope-labelled for NMR; also called hAurora-IDR; source: E. coli BL21(DE3), isotope-labelled (15N, 13C), purified, His tag removed by TEV …
B2: GST-BuGZ-N (hBuGZ N-terminus, 1-92aa) (domain or fragment)
chain: not shown
notes: BuGZ (ZNF207), human, N-terminus with the zinc fingers, residues 1-92; Cloned into pGEX-6P-1 at the EcoRI site; also called GST-BuGZ-N-terminus; source: E. coli Rosetta (DE3), purified

Tests used:
[1] = molecular target: T1, Aurora-A catalytic domain (CD, 128-403aa), unlabelled, as used in the NMR titration (human, UniProt O14965 128-403); assay: NMR titration; 1H-15N HSQC of labelled Aurora-A IDR (0.1 mM) without and with unlabelled catalytic domain, 1:2 IDR:CD molar ratio; 278 K; 20 mM NaH2PO4, 50 mM NaCl, 2 mM EDTA, 1 mM DTT, pH 6.4; settings: both partners purified
T1 construct: also called Aurora-A CD; AuroraA Kinase; source: purified
T1 sequence (looked up): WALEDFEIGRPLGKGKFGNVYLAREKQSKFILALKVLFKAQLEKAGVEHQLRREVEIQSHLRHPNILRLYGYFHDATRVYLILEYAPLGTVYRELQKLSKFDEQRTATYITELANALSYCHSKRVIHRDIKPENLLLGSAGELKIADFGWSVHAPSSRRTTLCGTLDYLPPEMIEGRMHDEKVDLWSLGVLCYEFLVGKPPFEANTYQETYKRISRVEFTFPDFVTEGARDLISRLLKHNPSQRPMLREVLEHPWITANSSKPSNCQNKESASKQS

[2] = molecular target: T2, His-hAurora-A-CD (Aurora-A catalytic domain, 122-403aa) (human, UniProt O14965 122-403); assay: pull-down; 5 μg His-hAurora-A-CD with 5 μg GST-BuGZ-N or GST on glutathione-agarose, 200 μL 0.1% PBST (Triton X-100), 4°C, 2 h; Western blot and Coomassie; settings: both partners purified
T2 construct: Cloned into pET-28a at the BamHI site; also called His-Aurora-A-CD; hAurora-CD; source: E. coli Rosetta (DE3), purified
T2 sequence (looked up): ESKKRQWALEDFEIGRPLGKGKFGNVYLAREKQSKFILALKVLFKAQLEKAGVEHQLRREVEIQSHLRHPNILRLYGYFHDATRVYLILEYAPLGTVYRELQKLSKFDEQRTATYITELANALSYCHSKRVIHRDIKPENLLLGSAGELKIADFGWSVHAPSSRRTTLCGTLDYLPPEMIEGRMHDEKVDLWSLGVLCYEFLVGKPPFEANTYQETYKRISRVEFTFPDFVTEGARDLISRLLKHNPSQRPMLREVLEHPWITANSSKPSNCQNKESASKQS

Binder | binding result [1] | binding result [2]
B1 | binds | –
B2 | – | binds
